Substitutions are numbered along the chain they refer to.
T1: VEGFR-3-Fc (UniProt P35916 25-328)
T1 construct: domain: first three Ig domains; conditioned supernatant of 293T cells; also called VEGFR-3-Fc fusion protein; not shown: Fc fragment of the pIg vector
T1 sequence (looked up): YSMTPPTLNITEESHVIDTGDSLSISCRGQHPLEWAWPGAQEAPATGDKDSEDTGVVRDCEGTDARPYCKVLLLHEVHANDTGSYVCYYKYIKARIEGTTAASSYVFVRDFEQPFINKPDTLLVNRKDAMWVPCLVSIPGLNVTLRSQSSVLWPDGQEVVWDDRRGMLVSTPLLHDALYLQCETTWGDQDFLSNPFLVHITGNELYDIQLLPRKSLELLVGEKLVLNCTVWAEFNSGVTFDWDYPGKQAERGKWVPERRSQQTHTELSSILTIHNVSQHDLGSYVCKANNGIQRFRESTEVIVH

B1: 33-11 (ligand)
chain: GQNHHEVVKSIDNEWRKTQCMPIETLVDIFQEYPDEIEYIFKPPCVSVYRCGGCCNSEGLQCVPTEESNITMQIMRITVPLSQGPKPVTISFLQHNKCECRPKKD
B2: 71-13 (ligand)
chain: GQNHHEVVKSIDNEWRKTQCMPREVCIDVGKEYPDEIEYIFKPSCVPLMRCGGCCNDEGLECVPTEESNITMQIMRITVPLSQGPKPVTISFANHTSCRCMSKLD
B3: 71-15 (ligand)
chain: B2 chain with D57S, E61Q
B4: 73-15 (ligand)
chain: B2 chain with S44P, P47S, L48V, M49Y, D57S, E61Q
B5: 74-11 (ligand)
chain: GQNHHEVVKSIDNEWRKTQCMPREVCIDVGKEFGVATNTFFKPSCVPLMRCGGCCNSEGLQCVPTEESNITMQIMRITVPLSQGPKPVTISFLQHNKCECRPKKD
B6: 74-8 (ligand)
chain: GQNHHEVVKSIDNEWRKTQCMPREVCIDVGKEFGVATNTFFKPSCVPLMRCGGCCNSEGLQCMNTSTSYLSKTLFEIKPHQGQHIGEMSFANHTSCRCMSKLD
B7: 74-10 (ligand)
chain: GQNHHEVVKSIDNEWRKTQCMPREVCIDVGKEFGVATNTFFKPSCVPLMRCGGCCNDEGLECMNTSTSYLSKTLFEITVPLSQGPKPVTISFLQHNKCECRPKKD
B8: 74-12 (ligand)
chain: B7 chain with D57S, E61Q
B9: 82-5 (ligand)
chain: AHYNTEILKFMDVYQRSYCHPIETLVDIFQEFGVATNTFFKPPCVSVYRCGGCCNDEGLECVPTEESNITMQIMRIKPHQGQHIGEMSFANHTSCRCMSKLD
B10: 12-5 (ligand)
chain: GQNHHEVVKFMDVYQRSYCHPIETLVDIFQEFGVATNTFFKPPCVSVYRCGGCCNDEGLECVPTEESNITMQIMRIKPHQGQHIGEMSFANHTSCRCMSKLDLVF
B11: 12-1 (ligand)
chain: B10 chain with A90L, N91Q, T93N, S94K, R96E, M98R, S99P, L101K
B12: 82-7 (ligand)
chain: B10 chain with G1A, Q2H, N3Y, H4N, H5T, V7I, V8L, D56S, E60Q
notes: clone entry
B13: 22-16 (ligand)
chain: AHYNTEILKSIDNEWRKTQCMPREVCIDVGKEFGVATNTFFKPPCVSVYRCGGCCNSEGLQCMNTSTSYLSKTLFEITVPLSQGPKPVTISFANHTSCRCMSKLDLVFEQKLISEEDLNSAVDHHHHHH
B14: 82-9 (ligand)
chain: AHYNTEILKFMDVYQRSYCHPIETLVDIFQEFGVATNTFFKPPCVSVYRCGGCCNDEGLECVPTEESNITMQIMRITVPLSQGPKPVTISFLQHNKCECRPKKDL
notes: clone entry
B15: 14-9 (ligand)
chain: GQNHHEVVKFMDVYQRSYCHPIETLVDIFQEFGVATNTFFKPSCVPLMRCGGCCNDEGLECVPTEESNITMQIMRITVPLSQGPKPVTISFLQHNKCECRPKKDL
notes: clone entry
B16: 82-11 (ligand)
chain: B14 chain with D56S, E60Q
notes: clone entry
B17: 82-13 (ligand)
chain: B14 chain with L92A, Q93N, N95T, K96S, E98R, R100M, P101S, K103L
notes: clone entry
B18: 84-9 (ligand)
chain: B14 chain with P43S, S46P, V47L, Y48M
notes: clone entry
B19: 84-11 (ligand)
chain: B14 chain with P43S, S46P, V47L, Y48M, D56S, E60Q
notes: clone entry
B20: 82-14 (ligand)
chain: AHYNTEILKFMDVYQRSYCHPIETLVDIFQEFGVATNTFFKPPCVSVYRCGGCCNDEGLECMNTSTSYLSKTLFEITVPLSQGPKPVTISFANHTSCRCMSKLD
B21: 82-15 (ligand)
chain: AHYNTEILKFMDVYQRSYCHPIETLVDIFQEFGVATNTFFKPPCVSVYRCGGCCNSEGLQCVPTEESNITMQIMRITVPLSQGPKPVTISFANHTSCRCMSKLD
B22: 82-16 (ligand)
chain: B20 chain with D56S, E60Q
B23: 84-1 (ligand)
chain: AHYNTEILKFMDVYQRSYCHPIETLVDIFQEFGVATNTFFKPSCVPLMRCGGCCNDEGLECVPTEESNITMQIMRIKPHQGQHIGEMSFLQHNKCECRPKKD
B24: 84-3 (ligand)
chain: B23 chain with D56S, E60Q
B25: 84-5 (ligand)
chain: B9 chain with P43S, S46P, V47L, Y48M
B26: 72-2 (ligand)
chain: GQNHHEVVKSIDNEWRKTQCMPREVCIDVGKEFGVATNTFFKPPCVSVYRCGGCCNDEGLECMNTSTSYLSKTLFEIKPHQGQHIGEMSFLQHNKCECRPKKD
B27: 72-4 (ligand)
chain: B26 chain with D57S, E61Q
B28: 72-6 (ligand)
chain: B6 chain with S44P, P47S, L48V, M49Y, S57D, Q61E
B29: 72-8 (ligand)
chain: B6 chain with S44P, P47S, L48V, M49Y

These binders were tested against T2, VEGFR-1-Fc (UniProt P17948 27-338) (assay: receptor-Fc IP).
T2 construct: domain: first three Ig domains; expressed in Drosophila S2 cells, purified on Protein A sepharose; also called VEGFR-1-Fc fusion protein; not shown: Fc fragment from the Signal-pIgPlus vector
T2 sequence (P17948 27-338): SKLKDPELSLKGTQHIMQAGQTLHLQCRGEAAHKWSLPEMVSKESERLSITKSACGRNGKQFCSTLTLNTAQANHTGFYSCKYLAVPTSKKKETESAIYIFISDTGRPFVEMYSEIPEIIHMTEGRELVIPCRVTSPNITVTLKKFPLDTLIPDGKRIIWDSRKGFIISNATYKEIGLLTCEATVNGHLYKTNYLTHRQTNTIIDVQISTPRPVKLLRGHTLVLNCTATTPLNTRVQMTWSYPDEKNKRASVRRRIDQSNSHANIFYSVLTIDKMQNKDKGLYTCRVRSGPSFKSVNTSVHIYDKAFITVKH
Outline: (§1)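 fusion protein at 400 ng/ml in an IP mix (PBS, 1.5% BSA, 0.06% Tween 20, 3 μg/ml heparin) was combined with sample supernatant at a 1:2 ratio. Bound ligand captured by immunoprecipitation with pentahistidine antibody.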

Binder | binding result
B1 | no binding
B2 | no binding
B3 | no binding
B4 | no binding
B5 | no binding
B6 | no binding
B7 | no binding
B8 | no binding
B9 | binds
B10 | binds
B11 | binds
B12 | binds
B13 | no binding
B14 | binds
B15 | binds
B16 | binds
B17 | binds
B18 | binds
B19 | binds
B20 | no binding
B21 | no binding
B22 | no binding
B23 | binds
B24 | binds
B25 | binds
B26 | no binding
B27 | no binding
B28 | no binding
B29 | no binding

What follows are binders tested against T1, VEGFR-3-Fc (assay: receptor-Fc IP).
Outline: as §1

Binder | binding result
B1 | no binding
B2 | no binding
B3 | no binding
B4 | no binding
B5 | no binding
B6 | no binding
B7 | no binding
B8 | no binding
B9 | no binding
B10 | no binding
B11 | binds
B12 | binds
B13 | binds
B14 | binds
B15 | binds
B16 | binds
B17 | binds
B18 | binds
B19 | binds
B20 | binds
B21 | binds
B22 | binds
B23 | no binding
B24 | no binding
B25 | no binding
B26 | binds
B27 | binds
B28 | binds
B29 | binds

These binders were tested against T3, VEGFR-2-Fc (UniProt P35968 20-322) (assay: receptor-Fc IP).
T3 construct: domain: first 3 Ig domains; conditioned supernatant of 293T cells; also called VEGFR-2-Fc fusion protein; not shown: Fc fragment of the pIg vector
T3 sequence (P35968 20-322): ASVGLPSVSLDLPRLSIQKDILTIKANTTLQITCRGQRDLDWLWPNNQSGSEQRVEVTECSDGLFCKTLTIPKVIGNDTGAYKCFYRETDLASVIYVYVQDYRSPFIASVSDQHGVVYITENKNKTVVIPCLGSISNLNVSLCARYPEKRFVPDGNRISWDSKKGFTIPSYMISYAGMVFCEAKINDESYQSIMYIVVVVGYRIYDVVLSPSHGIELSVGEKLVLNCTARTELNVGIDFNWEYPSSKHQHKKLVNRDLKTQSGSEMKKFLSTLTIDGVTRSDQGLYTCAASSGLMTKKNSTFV
Outline: as §1

Binder | binding result
B1 | no binding
B2 | no binding
B3 | no binding
B4 | binds
B5 | no binding
B6 | binds
B7 | binds
B8 | binds
B9 | no binding
B10 | no binding
B11 | binds
B12 | binds
B13 | binds
B14 | binds
B15 | binds
B16 | binds
B17 | no binding
B18 | binds
B19 | binds
B20 | no binding
B21 | binds
B22 | no binding
B23 | no binding
B24 | binds
B25 | no binding
B26 | binds
B27 | binds
B28 | no binding
B29 | binds

From patent US20080058263A1 (published 2008)
